Changes are numbered by the printed parent chain. Numbers in names are those of the source. One block for each binder: values may come before it.
Tests used:
[1] = biological target: human glycophorin A on human red blood cells or red blood cell membranes (human) (UniProt P02724); test: scFv 7 ug/ml on intact human RBC, unbound scFv by ELISA; pre-dilution
[2] = biological target: human glycophorin A on human red blood cells or red blood cell membranes (human) (UniProt P02724); test: scFv on intact human RBC, unbound scFv by ELISA; 60 min after 200-fold dilution
[3] = biological target: human glycophorin A on human red blood cells or red blood cell membranes (human) (UniProt P02724); test: scFv on intact human RBC, unbound scFv by ELISA; 5 min after 200-fold dilution
[4] = biological target: human glycophorin A on human red blood cells or red blood cell membranes (human) (UniProt P02724); test: scFv on intact human RBC, unbound scFv by ELISA; 120 min after 200-fold dilution
[5] = biological target: human glycophorin A on human red blood cells or red blood cell membranes (human) (UniProt P02724); test: scFv on intact human RBC, unbound scFv by ELISA; 20 min after 200-fold dilution
[6] = biological target: human glycophorin A on human red blood cells or red blood cell membranes (human) (UniProt P02724); test: scFv on intact human RBC, unbound scFv by ELISA; 0 min after 200-fold dilution
[7] = biological target: purified human glycophorin A protein (Sigma, cat # G5017) (human) (UniProt P02724); test: ELISA, native hGPA
[8] = biological target: human glycophorin A on human red blood cells or red blood cell membranes (human) (UniProt P02724); test: ELISA, Fab on coated human RBC membranes
[9] = biological target: T1, GP5-10 alanine scanning peptide (human); test: alanine scanning peptide ELISA
T1 sequence (peptide, N-terminal biotin): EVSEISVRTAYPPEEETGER

[10] = biological target: T2, GP5-15 alanine scanning peptide (human); test: alanine scanning peptide ELISA
T2 sequence (peptide, N-terminal biotin): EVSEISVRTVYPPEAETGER

[11] = biological target: T3, GP5-12 alanine scanning peptide (human); test: alanine scanning peptide ELISA
T3 sequence (peptide, N-terminal biotin): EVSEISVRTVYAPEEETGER

[12] = biological target: recombinant human GPA ectodomain (human) (UniProt P02724); test: ELISA, rec hGPA ectodomain

percentage of input scFv antibody bound [1]: 100%
percentage of input scFv antibody bound [2]: 3%
percentage of input scFv antibody bound [3]: 16%
percentage of input scFv antibody bound [4]: 0%
percentage of input scFv antibody bound [5]: 0%
percentage of input scFv antibody bound [6]: 90%
B1: TPP-5906 parental scFv (humanized and germlined 6C12) (scFv)
scFv: DIQLTQSPSFLSASVGDRVTITCRASSSVSYIYWFQQKPGKAPKLLIYATSTLQSGVPSRFSGSGSGTEYTLTISSLQPEDFATYYCHQRNSFPYTFGQGTKLEIKGGGGSGGGGSGGGGSGGGGSEVQLVQSGAEVKKPGASVKVSCKASGYTFTTYTIHWVRQAPGQGLEWMGYINPSSGYTRYNPKFKGRVTMTRDKSTSTAYMELRSLRSDDTAVYYCQTGTRDYWGQGTTVTVSS

binding by ELISA relative to parental [7]: 0.06
B2: TPP-5321 (Fab, V domains shown)
VH: EVQLVQSGAEVKKPGASVKVSCKASGYTFTTYTIHWVRQAPGQGLEWIGIINPSSDYTRYNPKFKDRVTLTTDKSTSTAYMELRSLRSDDTAVYYCQTGTRDYWGQGTTVTVSS
VL: DIQLTQSPSFLSASVGDRVTITCSAASSVSYIYWFQQKPGKAPKLLIYSTSTLPSGVPSRFSGSGSGTEYTLTISSLQPEDFATYYCHQRNSFPFTFGQGTKLEIKR

binding in ELISA relative to parental Fab (relative to parental Fab) [8]: 0.3
B3: TPP-5339, Hu6C12-24 Fab variant VH: (E1Q, I48M, L70M, T72R, K74T, R84S, D89E, Q97A, T98R) (Fab, V domains shown)
VH: B2 VH with E1Q, I48M, I50Y, L70M, T72R, K74T, R84S, D89E, Q97A, T98R
VL: B2 VL

binding by ELISA relative to parental [7]: 0.06
B4: TPP-5336 (Fab, V domains shown)
VH: B2 VH with I50Y, T98R
VL: B2 VL

binding by ELISA relative to parental [7]: 0.07
B5: TPP-5325 (Fab, V domains shown)
VH: B2 VH with I50Y, R59S
VL: B2 VL

binding by ELISA relative to parental [7]: 0.04
B6: TPP-5353 (Fab, V domains shown)
VH: B2 VH with I50Y
VL: B2 VL with R90L

binding by ELISA relative to parental [7]: 0.04
B7: TPP-5346 (Fab, V domains shown)
VH: B2 VH with I50Y
VL: B2 VL with Y33A

percent reduction of binding [9]: > 95%
percent reduction of binding [10]: > 95%
percent reduction of binding [11]: > 95%
B8: TPP-5906 Fab (Fab, V domains shown)
VH: B2 VH with I48M, I50Y, D56G, D66G, L70M, T72R
VL: B2 VL with S24R, A26S, S49A, P54Q, F95Y

binding by ELISA relative to parental [12]: 0.09
B9: TPP-5349 (Fab, V domains shown)
VH: B2 VH with I50Y
VL: B2 VL with T50A
